According to patent US20240101645A1 (HENRY M JACKSON FOUNDATION FOR THE ADVANCEMENT OF MILITARY …, published 2024):
Changes are numbered by the printed parent chain.

Columns and labels:
[1] = target: SARS-CoV-2 S on pseudovirions (Wuhan Hu-1 / IL1/2020, last 18 amino acids removed) (SARS-CoV-2, UniProt P0DTC2 14-1273); assay: cell-based or functional assay
[2] = target: T1, HCoV-229E spike antigens (bead panel) (HCoV-229E, UniProt P15423 16-1115); assay: multiplex bead assay
T1 sequence: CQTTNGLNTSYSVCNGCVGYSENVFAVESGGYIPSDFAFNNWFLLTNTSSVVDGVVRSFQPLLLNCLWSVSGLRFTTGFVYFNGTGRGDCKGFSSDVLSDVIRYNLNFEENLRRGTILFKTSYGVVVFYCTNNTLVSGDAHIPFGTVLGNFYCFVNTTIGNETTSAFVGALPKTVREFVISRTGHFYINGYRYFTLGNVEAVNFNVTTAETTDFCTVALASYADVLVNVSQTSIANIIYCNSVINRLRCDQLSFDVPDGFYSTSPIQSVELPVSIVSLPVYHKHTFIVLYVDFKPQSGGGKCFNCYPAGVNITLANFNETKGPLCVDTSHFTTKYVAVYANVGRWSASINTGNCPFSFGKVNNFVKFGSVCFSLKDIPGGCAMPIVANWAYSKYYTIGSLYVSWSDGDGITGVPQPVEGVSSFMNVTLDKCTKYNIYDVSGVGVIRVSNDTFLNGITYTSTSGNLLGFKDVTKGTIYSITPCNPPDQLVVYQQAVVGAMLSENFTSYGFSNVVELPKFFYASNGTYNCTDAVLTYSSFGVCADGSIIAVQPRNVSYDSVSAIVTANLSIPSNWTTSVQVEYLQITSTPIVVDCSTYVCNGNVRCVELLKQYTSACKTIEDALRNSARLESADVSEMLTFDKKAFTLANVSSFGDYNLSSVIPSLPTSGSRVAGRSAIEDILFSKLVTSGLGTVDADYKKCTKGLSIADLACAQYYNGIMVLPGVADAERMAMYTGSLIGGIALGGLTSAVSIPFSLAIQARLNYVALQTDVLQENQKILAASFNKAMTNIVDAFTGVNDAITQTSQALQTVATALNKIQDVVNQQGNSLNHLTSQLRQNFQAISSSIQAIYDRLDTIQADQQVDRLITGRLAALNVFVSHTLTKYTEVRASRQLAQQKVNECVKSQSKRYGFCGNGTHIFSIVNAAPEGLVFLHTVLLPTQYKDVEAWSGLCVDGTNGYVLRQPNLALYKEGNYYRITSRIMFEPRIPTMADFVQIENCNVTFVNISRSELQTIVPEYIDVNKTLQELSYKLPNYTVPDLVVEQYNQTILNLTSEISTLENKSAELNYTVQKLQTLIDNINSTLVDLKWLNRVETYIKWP

[3] = target: T2, HCoV-HKU1 spike antigens (bead panel) (HCoV-HKU1, UniProt Q5MQD0 13-1300); assay: multiplex bead assay
T2 sequence: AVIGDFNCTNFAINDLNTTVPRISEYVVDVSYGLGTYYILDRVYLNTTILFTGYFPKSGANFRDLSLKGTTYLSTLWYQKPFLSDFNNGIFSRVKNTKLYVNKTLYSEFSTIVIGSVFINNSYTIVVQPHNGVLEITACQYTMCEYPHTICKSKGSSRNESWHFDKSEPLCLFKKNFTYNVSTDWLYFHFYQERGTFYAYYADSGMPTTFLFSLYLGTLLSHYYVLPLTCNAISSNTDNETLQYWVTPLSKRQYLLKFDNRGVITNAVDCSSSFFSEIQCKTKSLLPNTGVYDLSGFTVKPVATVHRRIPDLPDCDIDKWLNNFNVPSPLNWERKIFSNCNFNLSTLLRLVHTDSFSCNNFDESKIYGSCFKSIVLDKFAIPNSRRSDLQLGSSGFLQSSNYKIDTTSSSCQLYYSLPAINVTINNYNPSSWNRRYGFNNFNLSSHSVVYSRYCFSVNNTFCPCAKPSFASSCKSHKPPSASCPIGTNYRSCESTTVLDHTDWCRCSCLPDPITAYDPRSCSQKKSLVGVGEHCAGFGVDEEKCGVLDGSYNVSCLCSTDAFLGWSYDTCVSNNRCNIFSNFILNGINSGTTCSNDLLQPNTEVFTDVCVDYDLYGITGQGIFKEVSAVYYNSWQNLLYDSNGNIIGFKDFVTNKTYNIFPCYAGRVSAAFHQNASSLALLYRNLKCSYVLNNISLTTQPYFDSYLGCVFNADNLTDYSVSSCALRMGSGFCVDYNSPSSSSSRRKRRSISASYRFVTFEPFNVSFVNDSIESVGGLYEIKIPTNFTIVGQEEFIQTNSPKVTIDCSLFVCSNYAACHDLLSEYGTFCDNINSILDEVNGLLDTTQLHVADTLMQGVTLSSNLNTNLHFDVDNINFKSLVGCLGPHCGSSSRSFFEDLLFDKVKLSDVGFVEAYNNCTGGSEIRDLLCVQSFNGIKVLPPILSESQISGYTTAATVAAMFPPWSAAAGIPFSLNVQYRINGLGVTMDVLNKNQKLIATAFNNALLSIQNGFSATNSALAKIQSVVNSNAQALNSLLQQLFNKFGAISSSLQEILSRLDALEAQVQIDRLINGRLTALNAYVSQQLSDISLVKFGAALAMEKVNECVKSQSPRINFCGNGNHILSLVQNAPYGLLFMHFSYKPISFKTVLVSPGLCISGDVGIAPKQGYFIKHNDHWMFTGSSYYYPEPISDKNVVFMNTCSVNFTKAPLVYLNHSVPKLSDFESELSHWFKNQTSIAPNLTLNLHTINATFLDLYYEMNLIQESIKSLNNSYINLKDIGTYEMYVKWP

[4] = target: SARS-CoV-1 spike antigens (bead panel) (SARS-CoV-1, UniProt P59594 14-1195); assay: multiplex bead assay

B1: COV_2056 (SEQ ID NO:792/797) (antibody, V domains shown)
VH: EVQLVESGGGVVQPGRSLRLSCAASGFTFSIYGMHWVRQAPGKGLEWVALISYDGTNKYYADSVKGRFSISRDDSKNTLYLQMNSLRPEDTAVYYCAKVLMMGDSSGFSLGDAFDIWGQGTMVTVSS
VL: DIQMTQSPSSVSASVGDRVTITCRASQGISNWLAWYQQKPGKAPKLLIYAASSLQSGVPSRFSGSVSGTDFTLTISSLQPEDFATYYCQQANSFPLTFGGGTKVDIKR
- Mean IC50, pSV neutralization [1]: 7.46 µg/ml
- Mean IC80, pSV neutralization [1]: ≥ 25 µg/ml
- binding result [2]: no binding
- binding result [3]: no binding
- binding result [4]: no binding

B2: COV_2174 (antibody, V domains shown)
VH: EVQLAESGGGLVKPGGSLRLSCAASGFTFSDYYMSWIRQAPGKGLEWVSYISSSGSTIYYADSVKGRFTISRDNAKNSLYLQMNSLRAEDTAVYYCARDWSVVVVPAAPAVDVWGQGTTVTVSS
VL: B1 VL with V11L, W32Y, Y36F, L46S, R61K, V66G, A91Y, F94Y, D105E
notes: human IgG1
- Mean IC50, pSV neutralization [1]: 0.502 µg/ml
- Mean IC80, pSV neutralization [1]: 2.04 µg/ml
- binding result [2]: no binding
- binding result [3]: no binding
- binding result [4]: no binding

B3: COV_2039 (antibody, V domains shown)
VH: QVQLVQSGAEVKKPGASVKVSCKVSGYMLIELSMHWVRQAPGKGLEWMGGFDPEDAETIYAQEFQGRVTMTEDTSTDTAYMELSSLRSEDTAVYYCTTGPAVTNRPADYWGPGTLVTVSS
VL: QSVLTQPPSVSGAPGQRVTISCTGSSSNIGASYDVHWYQQLPGTAPKLLIYANSNRPSGVPDRFSGSKSGTSASLAITGLQAEDEADYYCQSYDSSLSYSVVFGGGTKLTVL
notes: human IgG1
- Mean IC50, pSV neutralization [1]: 0.01 µg/ml
- Mean IC80, pSV neutralization [1]: 1.8 µg/ml
- binding result [2]: no binding
- binding result [3]: no binding
- binding result [4]: no binding

B4: COV_3077 (antibody, V domains shown)
VH: QVQLQESGPGLVKPSETLSLTCAVSGYSISSGYYWGWIRQPPGKGLEWIGSIYHSGSTYYNPSLKSRVTISVDTSKNQFSLKLSSVTAADTAVYYCARALYDAFDIWGQGTMVTVSS
VL: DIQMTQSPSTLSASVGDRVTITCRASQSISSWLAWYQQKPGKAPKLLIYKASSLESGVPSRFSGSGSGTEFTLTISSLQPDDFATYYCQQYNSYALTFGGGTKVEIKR
notes: human IgG1
- Mean IC50, pSV neutralization [1]: ≥ 25 µg/ml
- Mean IC80, pSV neutralization [1]: ≥ 25 µg/ml
- binding result [2]: no binding
- binding result [3]: no binding
- binding result [4]: no binding

B5: COV_2008 (antibody, V domains shown)
VH: QVRVVQSGAEVKNPGASVKVSCKVSGYTLTELSIHWVRQAPGNGLEWMGGFDPEDGETIYAQKFQGRVTMTEDTSTDTAYMELSSLRSDDTAVYYCATAGAITGTPRNFYYYYGMDVWGQGTTVTVSS
VL: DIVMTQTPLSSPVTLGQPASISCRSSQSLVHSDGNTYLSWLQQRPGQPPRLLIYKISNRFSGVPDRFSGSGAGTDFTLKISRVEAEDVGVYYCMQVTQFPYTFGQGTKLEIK
notes: human IgG1
- Mean IC50, pSV neutralization [1]: 0.02 µg/ml
- Mean IC80, pSV neutralization [1]: 0.31 µg/ml
- binding result [2]: no binding
- binding result [3]: no binding
- binding result [4]: no binding

B6: COV_2025 (antibody, V domains shown)
VH: QVHLVQSGAEVKKPGASVKVSCKVSGYTLVELSVHWVRQAPAKGLEWIGGFDPEDGETIYAQKFQGRVTMTEDTSTDTAYMELTNLRSEDTAVYYCVTSQPFVSPNWFDPWGQGTLVTVSS
VL: QSALTQPASVSGSPGQSITISCTGTSRDVGAYNYVSWYQQHPGKAPKLMIYEVTTRPSGVSNRFSGSKSGNTASLTISGLQAEDEADYYCSSYTGSRTLVFGTGTKVTVL
notes: human IgG1
- Mean IC50, pSV neutralization [1]: 0.02 µg/ml
- Mean IC80, pSV neutralization [1]: 0.49 µg/ml
- binding result [2]: no binding
- binding result [3]: no binding
- binding result [4]: no binding

B7: COV_2172 (SEQ ID NO:872/877) (antibody, V domains shown)
VH: EVQLVESGGGVVQPGRSLRLSCAPSGFTFSTYAMHWVRQAPGKGLEWVAVISYDGSIKYYADSVKGRFTISRDNTMNTVFLQMNSLRAEDTAVYFCAKGGERWELFTSFDYWGQGTQVTVSS
VL: QSALTQPRSVSGSPGQSVTISCTGTSSDVGGYNYVSWYQQHPGKAPKLMIYDVSKRPSGVPDRFSGSKSGNTASLTISGLQAEDEADYYCCSYAGSYTFVFGGGTKLTVLG
- Mean IC50, pSV neutralization [1]: 3.99 µg/ml
- Mean IC80, pSV neutralization [1]: ≥ 25 µg/ml
- binding result [2]: no binding
- binding result [3]: no binding
- binding result [4]: no binding

B8: COV_1149 (antibody, V domains shown)
VH: QVQLVESGGGVVQPGRSLRLSCAASGFTFSSYGMHWVRQAPGKGLEWVAVISYDGSNKYYADSVKGRFTISRDNSKNTLYLQMNSLRAEDTAVYYCAKTGGGYSYGLGNVWGQGTLVTVSS
VL: QSALTQPASVSGSPGQSITISCTGTSSDVGGYNYVSWYQQHPGKAPKLMIYDVSNRPSGVSNRFSGSKSGNTASLTISGLQAEDEADYYCSSYTSSSTLVVFGGGTKLTVLG
notes: human IgG1
- Mean IC50, pSV neutralization [1]: ≥ 25 µg/ml
- Mean IC80, pSV neutralization [1]: ≥ 25 µg/ml
- binding result [2]: no binding
- binding result [3]: no binding
- binding result [4]: no binding

B9: COV_2004 (antibody, V domains shown)
VH: QVQLVQSGAEVKKPGASVKVSCKASGYTFTGYYMHWVRQAPGQGLEWMGRINPSSGGTNYAQKFQGRVTMTRDTSISTAYMELSSLRSDDTAVYYCATDGDDGENWFDPWGQGTLVIVSS
VL: DIQMTQSPSSLSASVGDRVTITCRASQGISSWLAWYQQKPEKAPKSLIYAASSLQSGVPSRFSGSGSGTDFTLTISSLQPEDFATYYCQQYNSYPYTFGQGTKLEIK
notes: human IgG1
- Mean IC50, pSV neutralization [1]: 0.04 µg/ml
- Mean IC80, pSV neutralization [1]: 3.64 µg/ml
- binding result [2]: no binding
- binding result [3]: no binding
- binding result [4]: no binding

B10: COV_2014 (antibody, V domains shown)
VH: QVQLVQSGAEVKKPGASVKVSCKVSGYTLTELSMHWVRQAPGKGLEWMGGFDPEDGETIYAQKFQGRVTMTEDTSTDTAYMELSSLRSEDTAVYYCATGKINYYDSSGYYGTFDYWGQGTLVTVSS
VL: B9 VL with D1A, M4L, W32Y, E41G, S46L, S53T, Y91L, P95H, Y96L, K103R
notes: human IgG1
- Mean IC50, pSV neutralization [1]: ≥ 25 µg/ml
- Mean IC80, pSV neutralization [1]: ≥ 25 µg/ml
- binding result [2]: no binding
- binding result [3]: no binding
- binding result [4]: no binding
